# Laboratory results published in patent US20040086528A1.
# “And” between values parts separate entries of the source, which are not always exact repeats. Equal entries are not always repeated.
# Columns and labels:
# [1] = target: chemokine receptor C-C CKR-5 (human) (human) (UniProt P51681); test: 125I-MIP-1β (0.1 nM) competition on activated CD4+ T cells; gp120 at 0.1 µg/ml
# [2] = target: chemokine receptor C-C CKR-5 (human) (human) (UniProt P51681); test: 125I-MIP-1β (0.1 nM) competition on activated CD4+ T cells; gp120 at 0.2 µg/ml
# [3] = target: chemokine receptor C-C CKR-5 (human) (human) (UniProt P51681); test: 125I-MIP-1β (0.1 nM) competition on activated CD4+ T cells; gp120 at .05 µg/ml [sic]
# [4] = target: CD4 on the cell surface (human) (human) (UniProt P01730); test: cell-based or functional assay
# [5] = target: chemokine receptor C-C CKR-5 (human) (human) (UniProt P51681); test: 125I-MIP-1β (0.1 nM) competition on activated CD4+ T cells; gp120 at 20 µg/ml
# [6] = target: CCR5 D2A/D11A/E18A, HA-tagged (human) (UniProt P51681); test: cell-based or functional assay
# [7] = target: CCR5 E18A, HA-tagged (human) (UniProt P51681); test: cell-based or functional assay
# [8] = target: CCR5 D11A, HA-tagged (human) (UniProt P51681); test: cell-based or functional assay
# [9] = target: CCR5 D2A, HA-tagged (human) (UniProt P51681); test: cell-based or functional assay
# [10] = target: CCR5 D95A, HA-tagged (human) (UniProt P51681); test: cell-based or functional assay
# [11] = target: CCR5 E262A, HA-tagged (human) (UniProt P51681); test: cell-based or functional assay
# [12] = target: CCR5 H175A, HA-tagged (human) (UniProt P51681); test: cell-based or functional assay
# [13] = target: CCR5 H181A, HA-tagged (human) (UniProt P51681); test: cell-based or functional assay
# [14] = target: CCR5 K171A/E172A, HA-tagged (human) (UniProt P51681); test: cell-based or functional assay
# [15] = target: CCR5 K191A/N192A, HA-tagged (human) (UniProt P51681); test: cell-based or functional assay
# [16] = target: CCR5 K22A, HA-tagged (human) (UniProt P51681); test: cell-based or functional assay
# [17] = target: CCR5 K26A, HA-tagged (human) (UniProt P51681); test: cell-based or functional assay
# [18] = target: CCR5 N13A, HA-tagged (human) (UniProt P51681); test: cell-based or functional assay
# [19] = target: CCR5 Q102A, HA-tagged (human) (UniProt P51681); test: cell-based or functional assay
# [20] = target: CCR5 Q188A, HA-tagged (human) (UniProt P51681); test: cell-based or functional assay
# [21] = target: CCR5 Q93A, HA-tagged (human) (UniProt P51681); test: cell-based or functional assay
# [22] = target: CCR5 R274A/D276A, HA-tagged (human) (UniProt P51681); test: cell-based or functional assay
# [23] = target: CCR5 R31A, HA-tagged (human) (UniProt P51681); test: cell-based or functional assay
# [24] = target: CCR5 Y184A, HA-tagged (human) (UniProt P51681); test: cell-based or functional assay
# [25] = target: chemokine receptor C-C CKR-5 (human) (human) (UniProt P51681); test: cell-based or functional assay
# [26] = target: wild-type CCR5, HA-tagged at the C-terminus (human) (UniProt P51681); test: cell-based or functional assay
# [27] = target: recombinant, monomeric JR-FL gp120 (full-length) (HIV-1 JR-FL) (UniProt P20871); test: JR-FL gp120 (2 µg/ml) against 125I-MIP-1β on activated CD4+ T cells; antibody at 20 µg/ml
# [28] = target: chemokine receptor C-C CKR-5 (human) (human) (UniProt P51681); test: 125I-MIP-1β (0.1 nM) competition on activated CD4+ T cells; gp41 at 5 µg/ml
# [29] = target: wild-type CCR5, HA-tagged at the C-terminus (human) (UniProt P51681)
# [30] = target: chemokine receptor C-C CKR-5 (human) (human) (UniProt P51681); test: 125I-MIP-1β (0.1 nM) competition on activated CD4+ T cells; gp120 at 5 µg/ml
# [31] = target: chemokine receptor C-C CKR-5 (human) (human) (UniProt P51681); test: 125I-MIP-1β (0.1 nM) competition on activated CD4+ T cells; gp120 at 50 µg/ml
# [32] = target: chemokine receptor C-C CKR-5 (human) (human) (UniProt P51681); test: 125I-MIP-1β competition, CD4- CCR-5+ 293 cells against activated CD4+ T cells
# [33] = target: chemokine receptor C-C CKR-5 (human) (human) (UniProt P51681); test: 125I-MIP-1β competition on CD4- CCR-5+ 293 cells; gp120 at 50 µg/ml; strongest competition observed
# [34] = target: HIV-1 JR-FL envelope glycoproteins (membrane-bound gp120/gp41) (HIV-1 JR-FL); test: cell-based or functional assay
substance,measurement,setting,value
92TH014 gp120 (monomeric),percentage inhibition of 125I-MIP-1β binding,[1],6%
same,percentage inhibition of 125I-MIP-1β binding,[2],57%
same,percentage inhibition of 125I-MIP-1β binding,[3],65%
CD4 MAb OKT4a (antibody),"% Fusion (RET), LW5 CD4+ cells with HeLa-BRU cells, OKT4A at 3 ug/ml",[4],0%
same,"% Fusion (RET), LW5 CD4+ cells with HeLa-JR-FL cells, OKT4A at 3 ug/ml",[4],0%
CM243 gp120,percentage inhibition of 125I-MIP-1β binding,[5],76%
same,percentage inhibition of 125I-MIP-1β binding,[1],17%
same,percentage inhibition of 125I-MIP-1β binding,[2],40%
same,percentage inhibition of 125I-MIP-1β binding,[3],56%
HIV-1 JR-FL envelope glycoproteins (membrane-bound gp120/gp41),"co-receptor function of CCR5 (HIV-1 entry, luciferase), fold reduction",[6],50 fold
same,"co-receptor function of CCR5 (HIV-1 entry, luciferase), fold reduction",[7],15 fold and 20 fold
"MIP-1α, recombinant human (from UniProt P10147 27-92) (ligand)",relative % inhibition of NLluc/JR-FL entry into U87MG-CD4 cells by 2 µg/ml chemokine (wild-type = 100),[8],10%
same,relative % inhibition of NLluc/JR-FL entry into U87MG-CD4 cells by 2 µg/ml chemokine (wild-type = 100),[9],81%
same,relative % inhibition of NLluc/JR-FL entry into U87MG-CD4 cells by 2 µg/ml chemokine (wild-type = 100),[10],107%
same,relative % inhibition of NLluc/JR-FL entry into U87MG-CD4 cells by 2 µg/ml chemokine (wild-type = 100),[7],100%
same,relative % inhibition of NLluc/JR-FL entry into U87MG-CD4 cells by 2 µg/ml chemokine (wild-type = 100),[11],100%
same,relative % inhibition of NLluc/JR-FL entry into U87MG-CD4 cells by 2 µg/ml chemokine (wild-type = 100),[12],119%
same,relative % inhibition of NLluc/JR-FL entry into U87MG-CD4 cells by 2 µg/ml chemokine (wild-type = 100),[13],29%
same,relative % inhibition of NLluc/JR-FL entry into U87MG-CD4 cells by 2 µg/ml chemokine (wild-type = 100),[14],21%
same,relative % inhibition of NLluc/JR-FL entry into U87MG-CD4 cells by 2 µg/ml chemokine (wild-type = 100),[15],14%
same,relative % inhibition of NLluc/JR-FL entry into U87MG-CD4 cells by 2 µg/ml chemokine (wild-type = 100),[16],19%
same,relative % inhibition of NLluc/JR-FL entry into U87MG-CD4 cells by 2 µg/ml chemokine (wild-type = 100),[17],100%
same,relative % inhibition of NLluc/JR-FL entry into U87MG-CD4 cells by 2 µg/ml chemokine (wild-type = 100),[18],121%
same,relative % inhibition of NLluc/JR-FL entry into U87MG-CD4 cells by 2 µg/ml chemokine (wild-type = 100),[19],107%
same,relative % inhibition of NLluc/JR-FL entry into U87MG-CD4 cells by 2 µg/ml chemokine (wild-type = 100),[20],95%
same,relative % inhibition of NLluc/JR-FL entry into U87MG-CD4 cells by 2 µg/ml chemokine (wild-type = 100),[21],88%
same,relative % inhibition of NLluc/JR-FL entry into U87MG-CD4 cells by 2 µg/ml chemokine (wild-type = 100),[22],48%
same,relative % inhibition of NLluc/JR-FL entry into U87MG-CD4 cells by 2 µg/ml chemokine (wild-type = 100),[23],-5%
same,relative % inhibition of NLluc/JR-FL entry into U87MG-CD4 cells by 2 µg/ml chemokine (wild-type = 100),[24],102%
same,"% Fusion (RET), LW5 CD4+ cells with HeLa-JR-FL cells, chemokine at 533 ng/ml",[25],72%
same,"% Fusion (RET), PM1 cells with HeLa-JR-FL cells, chemokine at 400 ng/ml",[25],39%
same,"% luciferase activity, entry of ADA env-complemented virus into PM1 cells, chemokine at 100 ng/ml",[25],54%
same,"% luciferase activity, entry of BaL env-complemented virus into PM1 cells, chemokine at 100 ng/ml",[25],54%
same,relative % inhibition of NLluc/JR-FL entry into U87MG-CD4 cells by 2 µg/ml chemokine (wild-type = 100),[26],100%
SF170 gp120,percentage inhibition of 125I-MIP-1β binding,[1],87%
same,percentage inhibition of 125I-MIP-1β binding,[2],140%
W61D gp120,percentage inhibition of 125I-MIP-1β binding,[5],86%
same,percentage inhibition of 125I-MIP-1β binding,[1],39%
same,percentage inhibition of 125I-MIP-1β binding,[2],53%
same,percentage inhibition of 125I-MIP-1β binding,[3],65%
antibody D7324,Inhibition (%) of the gp120 competitive effect on 125I-MIP-1β binding,[27],-13%
monoclonal antibody 2G12,Inhibition (%) of the gp120 competitive effect on 125I-MIP-1β binding,[27],38%
monoclonal antibody 15e,Inhibition (%) of the gp120 competitive effect on 125I-MIP-1β binding,[27],65%
monoclonal antibody 17b,Inhibition (%) of the gp120 competitive effect on 125I-MIP-1β binding,[27],79%
monoclonal antibody 19b,Inhibition (%) of the gp120 competitive effect on 125I-MIP-1β binding,[27],88%
monoclonal antibody 48d,Inhibition (%) of the gp120 competitive effect on 125I-MIP-1β binding,[27],54%
monoclonal antibody 447-D,Inhibition (%) of the gp120 competitive effect on 125I-MIP-1β binding,[27],109%
monoclonal antibody 697-D,Inhibition (%) of the gp120 competitive effect on 125I-MIP-1β binding,[27],3%
monoclonal antibody A32,Inhibition (%) of the gp120 competitive effect on 125I-MIP-1β binding,[27],51%
monoclonal antibody IgG1b12,Inhibition (%) of the gp120 competitive effect on 125I-MIP-1β binding,[27],125%
recombinant gp41 (IIIB) ectodomain,percentage inhibition of 125I-MIP-1β binding,[28],24%
"recombinant, monomeric JR-FL gp120 (full-length), P20871 32-503 (other; other documents disagree on this pair)",inhibition of 2D7-PE binding (%),[29],70%
same,percentage inhibition of 125I-MIP-1β binding,[30],67%
same,percentage inhibition of 125I-MIP-1β binding,[5],91%
same,percentage inhibition of 125I-MIP-1β binding,[31],95%
same,percentage inhibition of 125I-MIP-1β binding,[1],44%
same,percentage inhibition of 125I-MIP-1β binding,[2],40%
same,fold higher gp120 concentration needed on CD4- cells than on CD4+ cells,[32],> 100 fold
same,percentage inhibition of 125I-MIP-1β binding,[3],58%
same,percent inhibition of MIP-1β binding,[33],73%
"recombinant, monomeric LAI gp120 (full-length) (from UniProt P03377 33-516) (other; other documents disagree on this pair)",percentage inhibition of 125I-MIP-1β binding,[30],-5%
same,percentage inhibition of 125I-MIP-1β binding,[5],-18%
same,percentage inhibition of 125I-MIP-1β binding,[31],-6%
same,percentage inhibition of 125I-MIP-1β binding,[3],-1%
"soluble, oligomeric 92RW020 gp120/gp41 complex",percentage inhibition of 125I-MIP-1β binding,[1],21%
same,percentage inhibition of 125I-MIP-1β binding,[2],49%
same,percentage inhibition of 125I-MIP-1β binding,[3],74%
"soluble, oligomeric JR-FL gp120/gp41 complex",percentage inhibition of 125I-MIP-1β binding,[1],46%
same,percentage inhibition of 125I-MIP-1β binding,[2],56%
same,percentage inhibition of 125I-MIP-1β binding,[3],84%
synthetic ECL2 peptide of human CCR5 (from UniProt P51681 168-199),"inhibition of fusion between HeLa-envJR-FL cells and PM1 cells (RET), peptide at 11 µg/ml",[34],15%
same,"inhibition of fusion between HeLa-envJR-FL cells and PM1 cells (RET), peptide at 33 µg/ml",[34],65%
same,"inhibition of fusion between HeLa-envJR-FL cells and PM1 cells (RET), peptide at 100 µg/ml",[34],97%
